Measurements reported in patent publication US20240116985A1 (published 2024).
Each block holds one binder with its values, some of them ahead of it. Starred links: 1 amine or outer side, 2 acyl side, 3 side chain; linkers in the order of their positions; H or OH if unused. Positions of bridges follow the written chain, without caps; N, C: chain ends. Non-standard residues stand in square brackets, D forms with d. Primed or numbered codes have the meaning given here. (4CF3PhAc)GA = (S)-2-amino-3-(N-(carboxymethyl)-2-(4-(trifluoromethyl)phenyl)acetamido)propanoic acid, O=C(Cc1ccc(C(F)(F)F)cc1)N(CC(=O)[*:3])C[C@H](N[*:1])C(=O)[*:2]; (4AcMePip)GA = (S)-2-amino-3-(N-(carboxymethyl)-1-methylpiperidine-4-carboxamido)propanoic acid, CN1CCC(C(=O)N(CC(=O)[*:3])C[C@H](N[*:1])C(=O)[*:2])CC1; PyrS2″ = (S)-3-amino-1-((pent-4-en-1-yloxy)carbonyl)pyrrolidine-3-carboxylic acid (stapling residue), C=CCCCOC(=O)N1CC[C@@](N[*:1])(C(=O)[*:2])C1; (NdiMeButC)GA = (S)-2-amino-3-(N-(carboxymethyl)-4-(dimethylamino)butanamido)propanoic acid, CN(C)CCCC(=O)N(CC(=O)[*:3])C[C@H](N[*:1])C(=O)[*:2]; (Me2NPr)GA = (S)-2-amino-3-(N-(carboxymethyl)-3-(dimethylamino)propanamido)propanoic acid, CN(C)CCC(=O)N(CC(=O)[*:3])C[C@H](N[*:1])C(=O)[*:2]; (MorphAc)GA = (S)-2-amino-3-(N-(carboxymethyl)-2-morpholinoacetamido)propanoic acid, O=C(CN1CCOCC1)N(CC(=O)[*:3])C[C@H](N[*:1])C(=O)[*:2]; B5(4) = 2,2-bis(4-pentenyl)glycine = 2-amino-2-(pent-4-en-1-yl)hept-6-enoic acid (stitching residue), C=CCCCC(CCCC=C)(N[*:1])C(=O)[*:2]; PyrS2 = (S)-3-amino-1-((pent-4-en-1-yloxy)carbonyl)pyrrolidine-3-carboxylic acid, C=CCCCOC(=O)N1CC[C@@](N[*:1])(C(=O)[*:2])C1; (Pic)GA = (S)-2-amino-3-(N-(carboxymethyl)picolinamido)propanoic acid, O=C(c1ccccn1)N(CC(=O)[*:3])C[C@H](N[*:1])C(=O)[*:2]; B5(22) = 2-amino-2-(pent-4-en-1-yl)hept-6-enoic acid (two alkene side chains), C=CCCCC(CCCC=C)(N[*:1])C(=O)[*:2]; B5(3) = 2,2-bis(4-pentenyl)glycine (stitching residue), C=CCCCC(CCCC=C)(N[*:1])C(=O)[*:2]; B5 = 2-amino-2-(pent-4-en-1-yl)hept-6-enoic acid, C=CCCCC(CCCC=C)(N[*:1])C(=O)[*:2]; Phe(3-COOH) = N[C@@H](Cc1cccc(C(=O)O)c1)C(=O)O; 2F3MeF = Cc1cccc(C[C@H](N[*:1])C(=O)[*:2])c1F; Phe(3-Cl) = N[C@@H](Cc1cccc(Cl)c1)C(=O)O; Phe(4-Cl) = N[C@@H](Cc1ccc(Cl)cc1)C(=O)O; Phe(2-F) = N[C@@H](Cc1ccccc1F)C(=O)O; Bta = N[C@@H](Cc1csc2ccccc12)C(=O)O; αAllylPro = C=CC[C@@]1(C(=O)O)CCCN1; tBuAla = CC(C)(C)C[C@H](N)C(=O)O; 3Thi = N[C@@H](Cc1ccsc1)C(=O)O; S8 = C=CCCCCCC[C@](C)(N)C(=O)O; PyrS2(4) = not defined here; Ac3c = NC1(C(=O)O)CC1

Columns and labels:
[1] = biological target: T1, B-cat-Halo (UniProt P35222 1-781); test: cell-based or functional assay
T1 sequence (looked up): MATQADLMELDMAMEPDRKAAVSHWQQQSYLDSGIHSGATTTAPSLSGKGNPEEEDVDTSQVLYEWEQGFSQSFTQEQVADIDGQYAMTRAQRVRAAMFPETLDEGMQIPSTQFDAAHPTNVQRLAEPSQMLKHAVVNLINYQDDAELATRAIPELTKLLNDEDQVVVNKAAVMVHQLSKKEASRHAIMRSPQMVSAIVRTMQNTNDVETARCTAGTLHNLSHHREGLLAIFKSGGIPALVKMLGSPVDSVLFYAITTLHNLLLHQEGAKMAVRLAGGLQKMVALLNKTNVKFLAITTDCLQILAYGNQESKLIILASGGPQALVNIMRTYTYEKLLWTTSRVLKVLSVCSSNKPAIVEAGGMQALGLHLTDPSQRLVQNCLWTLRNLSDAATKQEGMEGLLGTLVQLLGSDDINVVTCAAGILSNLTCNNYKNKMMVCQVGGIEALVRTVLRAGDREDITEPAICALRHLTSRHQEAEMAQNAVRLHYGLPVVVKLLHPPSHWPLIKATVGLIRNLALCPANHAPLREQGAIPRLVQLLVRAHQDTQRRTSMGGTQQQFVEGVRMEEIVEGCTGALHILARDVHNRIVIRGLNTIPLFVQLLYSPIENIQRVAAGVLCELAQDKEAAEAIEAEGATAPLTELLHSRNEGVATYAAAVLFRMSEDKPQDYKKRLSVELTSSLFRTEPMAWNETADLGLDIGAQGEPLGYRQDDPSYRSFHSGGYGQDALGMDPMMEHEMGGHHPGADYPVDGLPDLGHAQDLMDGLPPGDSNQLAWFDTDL

[2] = biological target: T2, B-cat-Halo (beta-catenin HaloTag fusion expressed in HEK293 cells) (UniProt P35222 1-781); test: cell-based or functional assay
T2 sequence (looked up): T1 sequence (looked up)

[3] = biological target: T3, full-length beta-Catenin (Uniprot ID P35222) (Homo sapiens (Human), UniProt P35222 1-781); test: FP competition vs 5FAM-TCF4(10-53) probe on full-length beta-catenin
T3 construct: the AlphaScreen used a Histidine (Nickel Chelate) detection kit, so a His tag is likely but not described; also called B-Catenin; bCat
T3 sequence: T1 sequence (looked up)
Protocol: The plate was incubated protected from light for 60 minutes at 20° C. prior to read. Reads were performed on a CLARIOstar plate reader (BMG Labtech) in duplicate, and data were fitted to a 1:1 binding model with hill slope using an in-house script. All provided concentrations are final concentrations.

[4] = biological target: T3, full-length beta-Catenin (Uniprot ID …); test: AlphaScreen competition vs biotin-TCF4(10-53) on full-length beta-catenin
Method in brief: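 Titrated peptide was preincubated 15 minutes at 20° C, then donor and acceptor beads were added for 60 minutes at 20° C protected from light. Reads were done in duplicate, and data were fitted to a 1:1 binding model with Hill slope; concentrations are final.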

NanoBRET Abs IC50 [1]: 15.3 µM
Binder: Ac-[αAllylPro]D[tBuAla][B5(22)]D[(4CF3PhAc)GA]AAFL[PyrS2][3Thi][Bta]Q-NH2 (staple 1-4, 4-11) [I-2236]

NanoBRET Abs IC50 [2]: > 20 µM
Binder: Ac-[αAllylPro]D[tBuAla][B5(4)]NT[Ac3c]AFN[PyrS2″][3Thi][Bta]Q-NH2 (staple 1-4, 4-11) [I-2492]

EC50 [3]: 3.12 µM
EC50 [4]: 0.181 µM
B1: I-309 (peptide)
peptide: Ac-[αAllylPro]DA[B5]DDAA[Phe(4-Cl)]V[S8]FWQ-NH2
modifications: staple 1-4, 4-11; not fully specified; printed as Ac-PL3-Asp-Ala-B5-Asp-Asp-Ala-Ala-4C1F-Val-S8-Phe-Trp-Gln-NH2
notes: Ac-PL3-Asp-Ala-B5-Asp-Asp-Ala-Ala-4C1F-Val-S8-Phe-Trp-Gln-NH2; stapled peptide composition

NanoBRET Abs IC50 [1]: 11.7 µM
Binder: Ac-[αAllylPro]D[tBuAla][B5(3)]D[Phe(3-COOH)]AAFL[PyrS2″][2F3MeF][Phe(4-Cl)]S-NH2 (staple 1-4, 4-11) [I-2222]

NanoBRET Abs IC50 [1]: 31.9 µM
Binder: Ac-[αAllylPro]D[tBuAla][B5(22)]D[(MorphAc)GA]AAFL[PyrS2][3Thi][Bta]Q-NH2 (staple 1-4, 4-11) [I-2239]

NanoBRET Abs IC50 [1]: 14.2 µM
Binder: Ac-[αAllylPro]D[tBuAla][B5(3)]D[Phe(3-COOH)]AAFL[PyrS2″][3Thi][Phe(3-Cl)]Q-NH2 (staple 1-4, 4-11) [I-2224]

EC50 [3]: 0.13 µM
EC50 [4]: 0.04 µM
B2: I-294 (peptide)
peptide: Ac-[αAllylPro]DA[B5(4)]DDAAFQ[S8]F[Bta]Q-NH2
modifications: staple 1-4, 4-11
notes: Ac-PL3-Asp-Ala-B5-Asp-Asp-Ala-Ala-Phe-Gln-S8-Phe-BztA-Gln-NH2; stapled peptide composition

EC50 [3]: 5 µM
EC50 [4]: 0.443 µM
B3: I-317 (peptide)
peptide: Ac-[αAllylPro]DA[B5]DDAA[Phe(2-F)]V[S8]FWQ-NH2
modifications: staple 1-4, 4-11
notes: Ac-PL3-Asp-Ala-B5-Asp-Asp-Ala-Ala-2FF-Val-S8-Phe-Trp-Gln-NH2; stapled peptide composition

EC50 [3]: 3.13 µM
EC50 [4]: 0.327 µM
B4: I-291 (peptide)
peptide: XDAXDDAAFVXFWA
modifications: not fully specified; N-terminal acetyl (Ac); C-terminal amide (NH2); PL3 at 1, B5 at 4, S8 at 11; stapled PL3-B5 and B5-S8
notes: Ac-PL3-Asp-Ala-B5-Asp-Asp-Ala-Ala-Phe-Val-S8-Phe-Trp-Ala-NH2; stapled peptide composition

EC50 [3]: 3.98 µM
EC50 [4]: 0.136 µM
B5: I-316 (peptide)
peptide: Ac-[αAllylPro]DA[B5]DDAAFQ[S8]FWA-NH2
modifications: staple 1-4, 4-11
notes: Ac-PL3-Asp-Ala-B5-Asp-Asp-Ala-Ala-Phe-Gln-S8-Phe-Trp-Ala-NH2; stapled peptide composition

EC50 [3]: 1.87 µM
EC50 [4]: 0.187 µM
B6: I-292 (peptide)
peptide: XDAXDDAAFVXFWA
modifications: not fully specified; N-terminal acetyl (Ac); C-terminal amide (NH2); PL3 at 1, B5 at 4, S8 at 11; stapled PL3-B5 and B5-S8
notes: as for B4

NanoBRET Abs IC50 [1]: > 20 µM
Binder: Ac-[αAllylPro]D[tBuAla][B5(22)]D[(Me2NPr)GA]AAFL[PyrS2][3Thi][Bta]Q-NH2 (staple 1-4, 4-11) [I-2234]

NanoBRET Abs IC50 [1]: 21.4 µM
Binder: Ac-[αAllylPro]D[tBuAla][B5(3)]D[(PfBz)GA]AAFL[PyrS2(4)][3Thi][Bta]Q-NH2 (staple 1-4, 4-11; reading uncertain) [I-2242]

NanoBRET Abs IC50 [1]: > 20 µM
Binder: Ac-[αAllylPro]D[tBuAla][B5(22)]D[(4AcMePip)GA]AAFL[PyrS2][3Thi][Bta]Q-NH2 (staple 1-4, 4-11) [I-2235]

NanoBRET Abs IC50 [1]: 24.3 µM
Binder: Ac-[αAllylPro]D[tBuAla][B5(22)]D[(Pic)GA]AAFL[PyrS2][3Thi][Bta]Q-NH2 (staple 1-4, 4-11) [I-2237]

NanoBRET Abs IC50 [1]: > 20 µM
Binder: Ac-[αAllylPro]D[tBuAla][B5(3)]D[(NdiMeButC)GA]AAFL[PyrS2″][3Thi][Bta]Q-NH2 (staple 1-4, 4-11) [I-2233]
